PMC2914677, “Characterisation of recombinant pyranose oxidase from the cultivated mycorrhizal basidiomycete Lyophyllum shimeji (hon-shimeji)” (Microbial Cell Factories, 2010)
Values belong to the molecule of their own block, whether it stands above or below them.

Experiments:
LsP2Ox = molecular target: T1, LsP2Ox (Lyophyllum shimeji, UniProt Q75ZP8); test: absorbance at […] nm; type: biochemical; details: apparent; electron acceptor, 100 mM D-glucose, oxygen removed with nitrogen, pH 6.5, 30°C, 50 mM potassium phosphate; used as PF6 salt
T1 construct: gene p2ox; full-length cDNA (ORF 1857 bp, 619 residues), C-terminal His6 tag kept, pET21a(+), E. coli Rosetta 2; purified by AIEX and preparative native PAGE; subunit 68,488 Da

TmP2Ox = molecular target: T2, TmP2Ox (Trametes ochracea, UniProt Q7ZA32); test: absorbance at […] nm; type: biochemical; details: apparent; electron acceptor, 100 mM D-glucose, oxygen removed with nitrogen, pH 6.5, 30°C, 50 mM potassium phosphate; used as PF6 salt
T2 construct: gene p2o; C-terminal His6 tag kept, pET21-d(+), E. coli BL21(DE3), IMAC

PcP2Ox = molecular target: T3, PcP2Ox (Phanerodontia chrysosporium, UniProt Q6QWR1); test: absorbance at […] nm; type: biochemical; details: apparent; electron acceptor, 100 mM D-glucose, oxygen removed with nitrogen, pH 6.5, 30°C, 50 mM potassium phosphate; used as PF6 salt
T3 construct: gene p2ox; C-terminal His6 tag kept, pET21-a(+), E. coli BL21(DE3), IMAC
T3 sequence (Q6QWR1 whole entry): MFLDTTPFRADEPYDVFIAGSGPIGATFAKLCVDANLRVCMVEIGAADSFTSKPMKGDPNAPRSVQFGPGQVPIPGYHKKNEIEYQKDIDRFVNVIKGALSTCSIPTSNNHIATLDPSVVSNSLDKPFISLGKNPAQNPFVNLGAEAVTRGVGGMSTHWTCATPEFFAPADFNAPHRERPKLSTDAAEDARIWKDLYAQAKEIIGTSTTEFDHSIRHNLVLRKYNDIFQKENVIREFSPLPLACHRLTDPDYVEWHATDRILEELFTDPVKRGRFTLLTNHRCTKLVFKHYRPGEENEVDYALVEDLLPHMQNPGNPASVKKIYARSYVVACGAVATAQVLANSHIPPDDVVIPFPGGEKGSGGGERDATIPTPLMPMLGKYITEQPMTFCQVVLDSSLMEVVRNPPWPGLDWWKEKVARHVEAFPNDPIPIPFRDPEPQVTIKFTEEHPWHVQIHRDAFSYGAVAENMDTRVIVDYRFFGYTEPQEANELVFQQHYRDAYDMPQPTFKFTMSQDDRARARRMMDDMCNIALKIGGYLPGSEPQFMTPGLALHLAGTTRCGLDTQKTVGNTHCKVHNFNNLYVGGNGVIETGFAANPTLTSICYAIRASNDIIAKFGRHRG

[1] = tested on: O=C1C(Cl)=CC(=Nc2ccc(O)cc2)C=C1Cl; test: purified protein; details: apparent, electron acceptor, 100 mM D-glucose, oxygen removed with nitrogen, pH 6.5, 30°C, 50 mM potassium phosphate
O=C1C=CC(=O)C=C1 = test: purified protein; details: apparent, electron acceptor, 100 mM D-glucose, oxygen removed with nitrogen, pH 6.5, 30°C, 50 mM potassium phosphate
purified protein [2] = substrate: O=C1C(Cl)=CC(=Nc2ccc(O)cc2)C=C1Cl; test: purified protein; type: biochemical, Lyophyllum shimeji; details: apparent, electron acceptor, 100 mM D-glucose, oxygen removed with nitrogen, pH 6.5, 30°C, 50 mM potassium phosphate
purified protein [3] = substrate: O=C1C=CC(=O)C=C1; test: purified protein; type: biochemical, Lyophyllum shimeji; details: apparent, electron acceptor, 100 mM D-glucose, oxygen removed with nitrogen, pH 6.5, 30°C, 50 mM potassium phosphate

Km (LsP2Ox): 187 µM
Km (TmP2Ox): 507 µM
Km (PcP2Ox): 330 µM
Molecule: C1=CCC=C1.C1=CCC=C1.[Fe+3] [ferrocenium ion]

Molecule: TmP2Ox (Trametes ochracea)
Km [1]: 413 µM
kcat [1]: 42 s⁻¹
kcat/Km [1]: 102000 M⁻¹ s⁻¹
Km (O=C1C=CC(=O)C=C1): 253 µM
kcat (O=C1C=CC(=O)C=C1): 225 s⁻¹
kcat/Km (O=C1C=CC(=O)C=C1): 895000 M⁻¹ s⁻¹

B1: LsP2Ox (Lyophyllum shimeji) (protein)
chain: MSLSTEQMLRDYPRSMQINGQIPKNAIHETYGNDGVDVFIAGSGPIGATYAKLCVEAGLRVVMVEIGAADSFYAVNAEEGTAVPYVPGYHKKNEIEFQKDIDRFVNVIKGALQQVSVPVRNQNVPTLDPGAWSAPPGSSAISNGKNPHQREFENLSAEAVTRGVGGMSTHWTCSTPRIHPPMESLPGIGRPKLSNDPAEDDKEWNELYSEAERLIGTSTKEFDESIRHTLVLRSLQDAYKDRQRIFRPLPLACHRLKNAPEYVEWHSAENLFHSIYNDDKQKKLFTLLTNHRCTRLALTGGYEKKIGAAEVRNLLATRNPSSQLDSYIMAKVYVLASGAIGNPQILYNSGFSGLQVTPRNDSLIPNLGRYITEQPMAFCQIVLRQEFVDSVRDDPYGLPWWKEAVAQHIAKNPTDALPIPFRDPEPQVTTPFTEEHPWHTQIHRDAFSYGAVGPEVDSRVIVDLRWFGATDPEANNLLVFQNDVQDGYSMPQPTFRYRPSTASNVRARKMMADMCEVASNLGGYLPTSPPQFMDPGLALHLAGTTRIGFDKATTVADNNSLVWDFANLYVAGNGTIRTGFGENPTLTSMCHAIKSARSIINTLKGGTDGKNTGEHRNL
notes: full-length cDNA (ORF 1857 bp, 619 residues), C-terminal His6 tag kept, pET21a(+), E. coli Rosetta 2; purified by AIEX and preparative native PAGE; subunit 68,488 Da
Km (purified protein [2]): 187 µM
kcat (purified protein [2]): 67.3 s⁻¹
kcat/Km (purified protein [2]): 361000 M⁻¹ s⁻¹
Km (purified protein [3]): 33 µM
kcat (purified protein [3]): 92.3 s⁻¹
kcat/Km (purified protein [3]): 2.76e+06 M⁻¹ s⁻¹
